Numbering of substitutions follows the chain as printed. Blank lines part the entries; values can stand above or below the binder they belong to.
Experiments:
GDF15 = target: T1, GDF15 (Homo sapiens (Human), UniProt Q99988 30-308); test: cell-based or functional assay
T1 sequence: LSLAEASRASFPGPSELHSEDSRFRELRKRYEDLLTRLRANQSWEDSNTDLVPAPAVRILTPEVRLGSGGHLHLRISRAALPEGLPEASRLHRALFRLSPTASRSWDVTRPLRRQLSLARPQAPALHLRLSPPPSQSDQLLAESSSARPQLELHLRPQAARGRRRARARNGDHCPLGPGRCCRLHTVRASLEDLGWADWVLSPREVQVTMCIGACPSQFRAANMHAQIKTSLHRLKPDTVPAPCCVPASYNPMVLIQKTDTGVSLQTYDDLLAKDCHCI

GDNF = target: T2, GDNF (UniProt P39905 78-211); test: Octet BLI, IgG on tip, avid
T2 sequence (looked up): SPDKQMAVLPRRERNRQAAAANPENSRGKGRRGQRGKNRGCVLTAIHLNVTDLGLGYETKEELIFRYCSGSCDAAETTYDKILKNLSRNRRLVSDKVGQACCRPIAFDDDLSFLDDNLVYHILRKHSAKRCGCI

GDF8 = GDF8 (UniProt O14793 267-375); test: Octet BLI, IgG on tip, avid
GDF10 [1] = target: T3, GDF10 (UniProt P55107 369-478); test: Octet BLI, IgG on tip, avid
T3 sequence (looked up): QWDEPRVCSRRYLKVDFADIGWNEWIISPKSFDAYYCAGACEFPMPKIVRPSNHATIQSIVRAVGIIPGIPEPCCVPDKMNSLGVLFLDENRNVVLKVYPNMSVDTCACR

GDF11 = target: T4, GDF11 (UniProt O95390 299-407); test: Octet BLI, IgG on tip, avid
T4 construct: Also the GDF-11 ligand of the ActRIIB/SMAD reporter assay
T4 sequence (O95390 299-407 limits assumed): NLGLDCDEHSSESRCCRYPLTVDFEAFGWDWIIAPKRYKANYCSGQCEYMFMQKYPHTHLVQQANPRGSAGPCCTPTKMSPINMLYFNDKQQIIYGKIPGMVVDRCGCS

Human Activin A Fc = target: T5, Human Activin A Fc (human, UniProt P08476 311-426); test: Octet BLI, IgG on tip, avid
T5 sequence (looked up): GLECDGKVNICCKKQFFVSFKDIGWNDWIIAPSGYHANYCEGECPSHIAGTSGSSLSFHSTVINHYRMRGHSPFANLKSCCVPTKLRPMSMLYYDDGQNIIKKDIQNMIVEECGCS

Human Activin B = target: T6, Human Activin B (human, UniProt P09529 293-407); test: Octet BLI, IgG on tip, avid
T6 construct: Also used for the Activin B ligand of the ActRIIB/SMAD reporter assay, where the species is not restated
T6 sequence (looked up): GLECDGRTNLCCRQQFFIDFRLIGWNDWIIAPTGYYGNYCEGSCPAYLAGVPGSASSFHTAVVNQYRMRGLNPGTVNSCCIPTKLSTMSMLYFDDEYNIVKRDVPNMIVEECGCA

Human BMP9 [2] = target: T7, Human BMP9 (human, UniProt Q9UK05 320-429); test: Octet BLI, IgG on tip, avid
T7 sequence (looked up): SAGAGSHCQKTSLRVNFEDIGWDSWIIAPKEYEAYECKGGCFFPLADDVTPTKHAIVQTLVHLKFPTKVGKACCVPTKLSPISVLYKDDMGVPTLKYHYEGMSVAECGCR

Human BMP10 [3] = target: T8, Human BMP10 (human, UniProt O95393 317-424); test: Octet BLI, IgG on tip, avid
T8 sequence (looked up): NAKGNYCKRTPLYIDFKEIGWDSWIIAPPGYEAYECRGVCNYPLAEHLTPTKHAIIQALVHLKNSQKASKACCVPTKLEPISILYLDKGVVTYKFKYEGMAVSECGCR

Cyno GDF15 Fc = target: T9, Cyno GDF15 Fc (cyno, UniProt G7PWZ3 193-308); test: Octet BLI, IgG on AHC tip, avid
T9 construct: also called cyno GDF15-Fc fusion
T9 sequence: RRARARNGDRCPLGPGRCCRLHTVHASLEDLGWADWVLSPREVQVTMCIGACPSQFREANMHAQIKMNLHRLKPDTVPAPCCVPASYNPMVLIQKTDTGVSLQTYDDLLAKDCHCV
Procedure: (§1) Briefly, ForteBio affinity measurements were performed by loading IgGs on-line onto AHC sensors. Sensors were equilibrated off-line in assay buffer for 30 min and then monitored on-line for 60 seconds for baseline establishment. Sensors with loaded IgGs were exposed to 100 nM antigen for 3 minutes, and afterwards were transferred to assay buffer for 3 min for off-rate measurement. All kinetics were analyzed using the 1:1 binding model.

Mouse GDF15 Fc = target: T10, Mouse GDF15 Fc (mouse, UniProt Q9Z0J7 189-303, limits assumed); test: Octet BLI, IgG on AHC tip, avid
T10 construct: also called mouse GDF15Fc fusion
T10 sequence (looked up): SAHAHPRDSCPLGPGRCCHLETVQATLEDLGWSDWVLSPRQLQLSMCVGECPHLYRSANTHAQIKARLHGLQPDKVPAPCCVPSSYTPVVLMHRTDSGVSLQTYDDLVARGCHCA
Procedure: as §1

Rat GDF-15 Fc = target: T11, Rat GDF-15 Fc (rat, UniProt Q9Z0J6 189-303, limits assumed); test: Octet BLI, IgG on AHC tip, avid
T11 sequence (looked up): T10 sequence (looked up) with A4L, Q63L, K75R, R110Q
Procedure: as §1

Human BMP9 [4] = target: T7, Human BMP9; test: Octet BLI, IgG on tip, avid; P.F. = binder with poor fit
GDF10 [5] = target: T3, GDF10; test: as above
Human BMP10 [6] = target: T8, Human BMP10; test: as above

GDF15 - GFRAL RET pERK IC50 (pM) (GDF15): 99.7 pM
Kd (GDNF): 2.56 nM
binding result (GDF8): no binding (tested: 100 nM)
binding result (GDF10 [1]): no binding (tested: 100 nM)
binding result (GDF11): no binding (tested: 100 nM)
binding result (Human Activin A Fc): no binding (tested: 100 nM)
binding result (Human Activin B): no binding (tested: 100 nM)
binding result (Human BMP9 [2]): no binding (tested: 100 nM)
binding result (Human BMP10 [3]): no binding (tested: 100 nM)
Kd (Cyno GDF15 Fc): 0.219 nM
Kd (Mouse GDF15 Fc): 0.219 nM
Kd (Rat GDF-15 Fc): 0.358 nM
B1: Clone N IgG (antibody, V domains shown)
VH: QVQLVQSGAEVKKPGASVKVSCKASGYTFTDYGIFWVRQAPGQGLEWMGWITAYSGDTHYAQKLQGRVTMTTDTSTSTAYMELRSLRSDDTAVYYCVRDTQYGGSPYWGQGTLVTVSS
VL: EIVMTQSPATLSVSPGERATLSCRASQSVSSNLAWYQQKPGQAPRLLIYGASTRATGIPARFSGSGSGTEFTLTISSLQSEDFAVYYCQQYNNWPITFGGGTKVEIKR
notes: IgG format

GDF15 - GFRAL RET pERK IC50 (pM) (GDF15): 104 pM
GDF15 - GFRAL-RET Luciferase IC50 (pM) (GDF15): 66.2 pM
binding result (GDNF): no binding (tested: 100 nM)
binding result (GDF8): no binding (tested: 100 nM)
binding result (GDF10 [1]): no binding (tested: 100 nM)
binding result (GDF11): no binding (tested: 100 nM)
Kd (Human Activin B): 145 nM
Kd (Cyno GDF15 Fc): 0.422 nM
Kd (Mouse GDF15 Fc): 0.358 nM
Kd (Rat GDF-15 Fc): 0.621 nM
binding result (Human BMP9 [4]): binds
B2: Clone B IgG (antibody, V domains shown)
VH: QVQLQESGPGLVKPSQTLSLTCTVSGGSISSGGIYWTWIRQHPGKGLEWIGAIAYSGSTYYNPSLKSRVTISVDTSKNQFSLKLSSVTAADTAVYYCARGIEYQHFDYWGQGTLVTVSS
VL: not shown
notes: IgG format; AAGA mutation in the Fc region stated for the FcRn test; also called GDF15 antibody agent Clone B

binding result (GDNF): no binding (tested: 100 nM)
binding result (GDF8): no binding (tested: 100 nM)
binding result (GDF10 [1]): no binding (tested: 100 nM)
binding result (GDF11): no binding (tested: 100 nM)
Kd (Human Activin B): 172 nM
binding result (Human BMP10 [3]): no binding (tested: 100 nM)
binding result (Human BMP9 [4]): binds
B3: Clone Q IgG (antibody, V domains shown)
VH: B2 VH
VL: not shown
notes: IgG format

GDF15 - GFRAL RET pERK IC50 (pM) (GDF15): 102 pM
GDF15 - GFRAL-RET Luciferase IC50 (pM) (GDF15): 75 pM
binding result (GDNF): no binding (tested: 100 nM)
binding result (GDF8): no binding (tested: 100 nM)
binding result (GDF11): no binding (tested: 100 nM)
Kd (Human Activin A Fc): 7.34 nM
binding result (Human Activin B): no binding (tested: 100 nM)
binding result (GDF10 [5]): binds
binding result (Human BMP9 [4]): binds
binding result (Human BMP10 [6]): binds
B4: Clone A IgG (antibody, V domains shown)
VH: B2 VH with S30T, I34S, T37S, A54V, I101V
VL: not shown
notes: IgG format

GDF15 - GFRAL RET pERK IC50 (pM) (GDF15): 145 pM
GDF15 - GFRAL-RET Luciferase IC50 (pM) (GDF15): 39.6 pM
binding result (GDNF): no binding (tested: 100 nM)
binding result (GDF8): no binding (tested: 100 nM)
binding result (GDF11): no binding (tested: 100 nM)
Kd (Human Activin A Fc): 6.48 nM
Kd (Human Activin B): 132 nM
binding result (Human BMP10 [3]): no binding (tested: 100 nM)
Kd (Cyno GDF15 Fc): 0.0862 nM
Kd (Mouse GDF15 Fc): 0.331 nM
Kd (Rat GDF-15 Fc): 0.437 nM
binding result (Human BMP9 [4]): binds
B5: Clone C IgG (antibody, V domains shown)
VH: B2 VH with I34Y, T37S, A54V, S58H, I101V, D107S, Y108L
VL: not shown
notes: IgG format; AAGA mutation in the Fc region stated for the FcRn test; also called GDF15 antibody agent Clone C

GDF15 - GFRAL RET pERK IC50 (pM) (GDF15): 50.4 pM
GDF15 - GFRAL-RET Luciferase IC50 (pM) (GDF15): 58.7 pM
binding result (GDNF): no binding (tested: 100 nM)
binding result (GDF8): no binding (tested: 100 nM)
binding result (GDF11): no binding (tested: 100 nM)
Kd (Human Activin A Fc): 7.87 nM
binding result (Human Activin B): no binding (tested: 100 nM)
binding result (Human BMP10 [3]): no binding (tested: 100 nM)
Kd (Cyno GDF15 Fc): 0.141 nM
Kd (Mouse GDF15 Fc): 0.299 nM
Kd (Rat GDF-15 Fc): 0.467 nM
binding result (GDF10 [5]): binds
binding result (Human BMP9 [4]): binds
B6: Clone D IgG (antibody, V domains shown)
VH: B2 VH with S30N, I34Y, A54Y, Y60V, I101V, D107N, Y108E
VL: not shown
notes: IgG format

binding result (GDNF): no binding (tested: 100 nM)
binding result (GDF8): no binding (tested: 100 nM)
binding result (GDF10 [1]): no binding (tested: 100 nM)
binding result (GDF11): no binding (tested: 100 nM)
Kd (Human Activin B): 188 nM
binding result (Human BMP9 [4]): binds
B7: Clone R IgG (antibody, V domains shown)
VH: B2 VH with K66E
VL: not shown
notes: IgG format

GDF15 - GFRAL RET pERK IC50 (pM) (GDF15): 66.7 pM
GDF15 - GFRAL-RET Luciferase IC50 (pM) (GDF15): 97.1 pM
binding result (GDNF): no binding (tested: 100 nM)
binding result (GDF8): no binding (tested: 100 nM)
Kd (GDF10 [1]): 36.8 nM
binding result (GDF11): no binding (tested: 100 nM)
binding result (Human Activin A Fc): no binding (tested: 100 nM)
binding result (Human Activin B): no binding (tested: 100 nM)
Kd (Cyno GDF15 Fc): 0.107 nM
Kd (Mouse GDF15 Fc): 0.191 nM
Kd (Rat GDF-15 Fc): 1.01 nM
binding result (Human BMP9 [4]): binds
binding result (Human BMP10 [6]): binds
B8: Clone G IgG (antibody, V domains shown)
VH: QVQLVQSGAEVKKPGSSVKVSCKASGGTFQGYAISWARQAPGQGLEWMGGIIPPYATANYAQKFQGRVTITADESTSTAYMELSSLRSEDTAVYYCARGVGELHLDVWGQGTMVTVSS
VL: not shown
notes: IgG format

— patent US20250019427A1 (BYOMASS, published 2025)
